Laboratory results from patent publication US20190092852A1 (Genentech, published 2019).
Where a chain is given by its changes, count along the chain named. Like-named read-outs stand apart in the source and are kept apart here.

T1: human ST2L on HEK-BLUE IL-33/IL-1beta cells (human, UniProt Q01638 19-556)
T1 sequence: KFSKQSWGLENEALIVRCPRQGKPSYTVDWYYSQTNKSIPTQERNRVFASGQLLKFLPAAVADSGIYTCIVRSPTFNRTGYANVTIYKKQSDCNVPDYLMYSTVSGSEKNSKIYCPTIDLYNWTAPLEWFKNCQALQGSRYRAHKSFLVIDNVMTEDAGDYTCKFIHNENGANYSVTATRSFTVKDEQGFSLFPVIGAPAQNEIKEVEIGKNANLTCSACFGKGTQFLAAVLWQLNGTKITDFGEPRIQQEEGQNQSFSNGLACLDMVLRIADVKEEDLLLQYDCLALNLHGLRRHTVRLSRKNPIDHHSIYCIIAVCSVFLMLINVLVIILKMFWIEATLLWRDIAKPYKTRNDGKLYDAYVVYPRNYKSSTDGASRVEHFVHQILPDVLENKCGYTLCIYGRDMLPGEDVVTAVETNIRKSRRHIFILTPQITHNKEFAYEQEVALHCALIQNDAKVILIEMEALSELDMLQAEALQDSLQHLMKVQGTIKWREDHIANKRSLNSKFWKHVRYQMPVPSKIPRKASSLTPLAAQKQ

T2: human IL-33 (R&D Systems, #3625-IL-010/CF) (human, UniProt O95760 112-270)
T2 sequence (looked up): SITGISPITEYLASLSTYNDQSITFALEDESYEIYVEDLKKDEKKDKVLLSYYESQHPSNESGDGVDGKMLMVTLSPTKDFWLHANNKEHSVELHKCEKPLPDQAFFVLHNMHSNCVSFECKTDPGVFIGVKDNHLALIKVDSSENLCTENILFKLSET

T3: cynomolgus monkey N-terminal 6-His-tagged and C-terminal Avi-tagged IL-33 (S112-T270) (cynomolgus monkey)
T3 chain: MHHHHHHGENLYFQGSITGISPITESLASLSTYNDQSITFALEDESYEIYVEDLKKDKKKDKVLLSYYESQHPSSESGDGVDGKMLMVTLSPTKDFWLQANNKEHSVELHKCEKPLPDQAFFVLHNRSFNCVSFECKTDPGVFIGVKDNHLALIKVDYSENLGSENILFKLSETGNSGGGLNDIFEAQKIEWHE

T4: biotinylated human IL-33 (human, UniProt O95760 112-270, biotin-labeled with EZ-LINK NHS-PEG4-Biotin)
T4 construct: also called biotin-huIL-33
T4 sequence (looked up): T2 sequence (looked up)

T5: biotinylated cyno IL-33 (cynomolgus monkey, UniProt A0A2K5W3I1 112-269, biotin-labeled with EZ-LINK NHS-PEG4-Biotin)
T5 construct: also called biotin-cyIL-33
T5 sequence: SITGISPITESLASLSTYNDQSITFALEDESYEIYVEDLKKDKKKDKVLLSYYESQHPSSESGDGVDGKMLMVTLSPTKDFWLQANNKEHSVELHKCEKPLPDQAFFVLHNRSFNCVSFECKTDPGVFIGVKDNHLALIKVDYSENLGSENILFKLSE

T6: cyno IL-33 N-His (cynomolgus monkey)
T6 chain: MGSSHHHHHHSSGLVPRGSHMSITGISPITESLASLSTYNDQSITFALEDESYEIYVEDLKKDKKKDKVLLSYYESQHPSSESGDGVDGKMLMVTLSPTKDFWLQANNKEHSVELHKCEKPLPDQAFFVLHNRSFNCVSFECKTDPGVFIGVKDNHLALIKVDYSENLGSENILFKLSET

B1: Human IL-33 N-His C-Avi (ligand)
ligand: T3 chain with S26Y, K58E, S75N, Q99H, R127M, S128H, F129S, Y158S, G163C, S164T
B2: H1M9568N (antibody, IgG1, V domains shown)
VH: QVLLVQSGAEVKKPGATVKVSCKASGSTFTGYYMHWVRQAPGQGLEWMGWINPNNGGTNYAQKFQGRVTMTRDTSISTAYMELSRLRSDDTAVYYCARELRYNWKSWGQGTLVTVSS
VL: EIVLTQSPGTLSLSPGERVTLSCRASQSVGRPYLAWYQQIPGQAPRLLIYGASSRATDIPDRFSGNGSGTDFTLTISRLEPEDFAVYYCQQYDNSPYTFGQGTRLEIK
notes: also called RG3
B3: H4H9629P (antibody, IgG4, V domains shown)
VH: EVQLVESGGGLVQPGGSLRLSCAASGFTFRSFAMSWVRQAPGKGLELVSDLRTSGGSTYYADSVKGRLTISRDNSKNTLYLQMNSLRAEDTAVYYCAKSHYSTSWFGGFDYWGQGTLVTVSS
VL: DIQMTQSPSSVSASVGDRVTITCRASQGFSSWLAWYQQKPGKAPKLLIYAASSLQSGVPSRFSGSGSGTDFTLTITNLQPEDFATYYCQQANSFPLTFGGGTKVEIK
notes: also called RG4
B4: H4H9640P (antibody, IgG4, V domains shown)
VH: QVQLQESGPGLVKPSETLSLTCTVSGGSISSYYWSWIRQPPGKGLELIGYIYYSGSTNYNPSLKSRVTISVDTSKNHFSLKLSSVTAADTAVYYCARSQYTSSWYGSFDIWGQGTMVTVSS
VL: DIQMTQSPSSVSASVGDRVTITCRASQGISTWLAWFQQKPGKAPKLLIYAASTLQGGVPSRFSGSGSGPEFTLTISSLQPEDFATYYCQQANSFPWTFGQGTKVEIK
notes: also called RG6
B5: Human IL-33 N-His Biotinylated (ligand)
ligand: T6 chain with S32Y, K64E, S81N, Q105H, R133M, S134H, F135S, Y164S, G169C, S170T
modifications: biotinylated, sites not given

What was measured:
[1] = molecular target: T1, human ST2L on HEK-BLUE IL-33/IL-1beta …; experiment: cell-based or functional assay
[2] = molecular target: T2, human IL-33 (R&D Systems, …); experiment: cell-based or functional assay
[3] = molecular target: T2, human IL-33 (R&D Systems, …); experiment: cell-based or functional assay; remark: listed apart in the source
[4] = molecular target: T2, human IL-33 (R&D Systems, …); experiment: cell-based or functional assay; remark: listed apart in the source
[5] = molecular target: T2, human IL-33 (R&D Systems, …); experiment: cell-based or functional assay; remark: listed apart in the source
[6] = molecular target: T2, human IL-33 (R&D Systems, …); experiment: cell-based or functional assay; remark: listed apart in the source
[7] = molecular target: T2, human IL-33 (R&D Systems, …); experiment: cell-based or functional assay; remark: listed apart in the source
[8] = molecular target: T3, cynomolgus monkey N-terminal …; experiment: cell-based or functional assay
biotinylated human IL-33 = molecular target: T4, biotinylated human IL-33; experiment: competitive ELISA, biotin-huIL-33 to coated hST2-Fc
Method: The ability of the anti-IL-33 antibody 10C12.38.H6.87Y.58I IgG4 and each anti-IL-33 antibody listed in Table 5 (RG1-RG20) to block either human IL-33 or cyno IL-33 binding to human ST2 receptor was tested in a competitive binding ELISA. Briefly, 1 μg/ml of recombinant human ST2-Fc chimera protein prepared in coating buffer (50 mM sodium carbonate, pH 9.6) was coated on a 384-well MAXISORP® plate (Nalgene Nunc International; Rochester, N.Y.) and incubated overnight at 4° C. On the next day, non-specific binding was blocked with PBS containing 0.5% (w/v) solution of bovine serum albumin (BSA). Fixed concentrations of biotinylated human or cyno IL-33 prepared in assay buffer (25 mM PBS, pH 7.2, 0.1% BSA, 0.05% TWEEN®-20) were mixed with an equal volume of serially-diluted anti-IL-33 antibodies or assay buffer alone and incubated for 1 h at room temperature. The final assay concentrations of biotinylated human IL-33 or cyno IL-33 were 20 pM and 45 pM, respectively, and the final assay concentration of each antibody ranged from 0-300 nM. The pre-mixed solutions were added to the ST2-Fc coated plate and incubated for 1 h at room temperature. The binding of biotinylated IL-33 to coated ST2-Fc was detected by the sequential addition of Streptavidin Poly-HRP80 (Fitzgerald; Buckinghamshire, UK) and 3,3′,5,5′-tetramethyl benzidine (TMB) Microwell Peroxidase Substrate System (KPL; Gaithersburg, Md.). The absorbance (450 nm) was recorded using a […] ASCENT® plate reader (Thermo Scientific; Rockford, Ill.). The binding activity (%) of biotin-IL-33 to ST2 in the presence of anti-IL-33 was plotted as a function of antibody concentration. The data generated were fitted to a four-parameter equation to determine IC₅₀ values for each antibody (FIGS. 25A and 25B) using Prism software (Graphpad Software; La Jolla, Calif.). The maximum blocking (%) of each antibody was calculated as the ratio of the reduction in signal measured in the presence of antibody relative to the difference between the signal with IL-33 alone and background measurements.

biotinylated cyno IL-33 = molecular target: T5, biotinylated cyno IL-33; experiment: competitive ELISA, biotin-cyIL-33 to coated hST2-Fc
Method in brief: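 Recombinant human ST2-Fc coated at 1 μg/ml; biotin-IL-33 (final 20 pM human, 45 pM cyno) premixed 1 h RT with serially diluted antibody (0–300 nM final), then bound to ST2-Fc 1 h RT. Streptavidin-polyHRP/TMB, A450; IC₅₀ from four-parameter fit, max blocking relative to IL-33-alone signal minus background.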

cyno IL-33 N-His [9] = molecular target: T6, cyno IL-33 N-His; experiment: SPR Biacore T200, 37 C
Method in brief: (§1)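 Antibodies captured via anti-Fc on CM5 chip; IL-33 injected at 3.7–100 nM (three-fold series), 4 min association, 10 min dissociation, 30 μl/min, ADA pH 7.4 buffer with 0.15 M NaCl, EDTA, Tween-20, at 25 °C or 37 °C. KD = koff/kon from 1:1 Langmuir fit; t1/2 = ln(2)/(60*koff).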

[10] = molecular target: T2, human IL-33 (R&D Systems, …); experiment: SPR Biacore T200, 37 C
Method in brief: as §1

cyno IL-33 N-His [11] = molecular target: T6, cyno IL-33 N-His; experiment: SPR Biacore T200, 25 C
Method in brief: as §1

[12] = molecular target: T2, human IL-33 (R&D Systems, …); experiment: SPR Biacore T200, 25 C
Method in brief: as §1

[13] = molecular target: T2, human IL-33 (R&D Systems, …); experiment: cell-based or functional assay; remark: listed apart in the source
[14] = molecular target: T2, human IL-33 (R&D Systems, …); experiment: cell-based or functional assay; remark: listed apart in the source

Row | Binder | EC50 (SEAP reporter OD 620, HEK-BLUE IL-33/IL-1beta cells) [1] [nM] | Ph-p38 MFI at 0.4 nM Ab (500 pM human IL-33, primary basophils) [2] [MFI] | IC50 (read off the curve) [3] [nM] | Ph-p38 MFI at 2 nM Ab (500 pM human IL-33, primary basophils) [4] [MFI] | IC50 (read off the curve) [5] [nM] | IC50, IL-33-induced phospho-p38 in primary human basophils, 500 pM hIL-33 [6] [M] | IC50; SEAP reporter (OD 620), HEK-BLUE IL-33/IL-1beta cells, 10 pM hIL-33 [7] [M] | IC50 (biotinylated human IL-33) [nM] | Maximum Blocking (biotinylated human IL-33) [%] | IC50 (biotinylated cyno IL-33) [nM] | Maximum Blocking (biotinylated cyno IL-33) [%] | Kd (cyno IL-33 N-His [9]) [nM] | koff (cyno IL-33 N-His [9]) [s⁻¹] | kon (cyno IL-33 N-His [9]) [M⁻¹ s⁻¹] | t1/2 (cyno IL-33 N-His [9]) [min] | Kd [10] [nM] | koff [10] [s⁻¹] | kon [10] [M⁻¹ s⁻¹] | t1/2 [10] [min] | Kd (cyno IL-33 N-His [11]) [nM] | other results
1 | B1 | 0.0098 |  |  |  |  |  |  |  |  |  |  |  |  |  |  |  |  |  |  |  | 
2 | B2 |  | 88 | ~0.0004 | 38 | ~0.0004 | 4e-13 | 1.1e-10 | 0.19 | 85 | 77 | 45 |  |  |  |  |  |  |  |  |  | IC50; SEAP reporter (OD 620), HEK-BLUE IL-33/IL-1beta cells, 5 pM cyno IL-33 (5pM cIL-33-Nhis) [8]: 2.9e-08 M
3 | B3 |  | 67 | 0.0003 to 0.0004 | 38 | 0.0003 to 0.0004 | 3.6e-13 | 3.3e-11 | 0.092 | 82 |  |  | 547 | 0.000502 | 916 | 23 | 0.261 | 0.000738 | 2.82e+06 | 16 | 54 | koff (cyno IL-33 N-His [11]): 0.0204 s⁻¹; kon (cyno IL-33 N-His [11]): 379000 M⁻¹ s⁻¹; t1/2 (cyno IL-33 N-His [11]): 1 min; Kd [12]: 0.559 nM; koff [12]: 0.000632 s⁻¹; kon [12]: 1.13e+06 M⁻¹ s⁻¹; t1/2 [12]: 18 min
4 | B4 |  | 99 |  | 52 |  | 3.9e-13 | 6.1e-10 | 0.19 | 80 | 45 | 25 | 4.2 | 0.0392 | 9.34e+06 | 0 | 0.359 | 0.000626 | 1.74e+06 | 18 | 2.17 | IC50 (read off the curve) [13]: ~0.0004 nM; koff (cyno IL-33 N-His [11]): 0.000528 s⁻¹; kon (cyno IL-33 N-His [11]): 244000 M⁻¹ s⁻¹; t1/2 (cyno IL-33 N-His [11]): 22 min; Kd [12]: 0.549 nM; koff [12]: 0.000438 s⁻¹; kon [12]: 797000 M⁻¹ s⁻¹; t1/2 [12]: 26 min; IC50; IFN-gamma ELISA, primary human NK cells, 260 pM hIL-33 + IL-12 [14]: 2.4e-09 M
5 | B5 | 0.004 |  |  |  |  |  |  |  |  |  |  |  |  |  |  |  |  |  |  |  | 
